Experimental data from the supplement of paper PMC11246515.
± gives the standard deviation of the averaged measurements.

Assay: total protein half-life in vivo (active degradation + dilution); higher = more stable protein
[1] = E. coli NCM3722 delta-clpP delta-lon delta-hslV, growth: N-lim chemostat, doubling time 6 h
[2] = E. coli NCM3722 delta-clpP, growth: N-lim chemostat, doubling time 6 h
[3] = E. coli NCM3722 delta-hslV, growth: N-lim chemostat, doubling time 6 h
[4] = E. coli NCM3722 delta-lon, growth: N-lim chemostat, doubling time 6 h
[5] = E. coli NCM3722 delta-smpB, growth: N-lim chemostat, doubling time 6 h
[6] = wild type E. coli NCM3722, growth: C-lim chemostat, doubling time 3 h
[7] = wild type E. coli NCM3722, growth: C-lim chemostat, doubling time 6 h
[8] = wild type E. coli NCM3722, growth: C-lim chemostat, doubling time 12 h
[9] = wild type E. coli NCM3722, growth: N-lim chemostat, doubling time 6 h
[10] = wild type E. coli NCM3722, growth: N-lim chemostat, doubling time 12 h
[11] = wild type E. coli NCM3722, growth: P-lim chemostat, doubling time 6 h
[12] = wild type E. coli NCM3722, growth: P-lim chemostat, doubling time 12 h

Sequence	total protein half-life in vivo [1] [h]	total protein half-life in vivo [2] [h]	total protein half-life in vivo [3] [h]	total protein half-life in vivo [4] [h]	total protein half-life in vivo [5] [h]	total protein half-life in vivo [6] [h]	total protein half-life in vivo [7] [h]	total protein half-life in vivo [8] [h]	total protein half-life in vivo [9] [h]	total protein half-life in vivo [10] [h]	total protein half-life in vivo [11] [h]	total protein half-life in vivo [12] [h]
MFTRVANFCRKVLSREESEAEQAVARPQVTVIPREQHAISRKDISENALKVMYRLNKAGYEAWLVGGGVRDLLLGKKPKDFDVTTNATPEQVRKLFRNCRLVGRRFRLAHVMFGPEIIEVATFRGHHEGNVSDRTTSQRGQNGMLLRDNIFGSIEEDAQRRDFTINSLYYSVADFTVRDYVGGMKDLKDGVIRLIGNPETRYREDPVRMLRAVRFAAKLGMRISPETAEPIPRLATLLNDIPPARLFEESLKLLQAGYGYETYKLLCEYHLFQPLFPTITRYFTENGDSPMERIIEQVLKNTDTRIHNDMRVNPAFLFAAMFWYPLLETAQKIAQESGLTYHDAFALAMNDVLDEACRSLAIPKRLTTLTRDIWQLQLRMSRRQGKRAWKLLEHPKFRAAYDLLALRAEVERNAELQRLVKWWGEFQVSAPPDQKGMLNELDEEPSPRRRTRRPRKRAPRREGTA [P0ABF1]	6.05 ± 0.76	5.89 ± 0.71	3.67 ± 0.17	3.728 ± 0.025	3.45 ± 0.18	2.324 ± 0.019	4.37 ± 0.12	6.58 ± 0.41	3.84 ± 0.079	6.19 ± 0.3	3.92 ± 0.57	7.24 ± 0.26
MNQIFMVIFLVLSGFIVGNVWSDRGWQKKWAERDAAALSQEVNAQFAARIIEQGRTIARDEAVKDAQQKSAEISARAAYLSDSVNQLRAEAKKYAIRLDAAKHTADLAAAVRGKTTKTAEGMLTNMLGDIAAEAQLYAEIADERYIAGVTCQQIYESLRDKKHQM	–	–	–	–	–	–	–	–	–	–	–	9.42
MAYFLDFDERALKEWRKLGSTVREQLKKKLVEVLESPRIEANKLRGMPDCYKIKLRSSGYRLVYQVIDEKVVVFVISVGKRERSEVYSEAVKRIL [P0C077]	4.02 ± 0.45	3.59 ± 0.8	2.54 ± 0.14	3.36 ± 0.24	2.83 ± 0.12	3 ± 0.35	4.25 ± 0.73	6.2 ± 0.85	2.58 ± 0.06	3.73 ± 0.099	3.75 ± 0.74	11.3 ± 0.5
MQVFIMRHGDAALDAASDSVRPLTTNGCDESRLMANWLKGQKVEIERVLVSPFLRAEQTLEEVGDCLNLPSSAEVLPELTPCGDVGLVSAYLQALTNEGVASVLVISHLPLVGYLVAELCPGETPPMFTTSAIASVTLDESGNGTFNWQMSPCNLKMAKAI	4.59 ± 0.56	4.209 ± 0.026	0.943 ± 0.06	0.853 ± 0.11	1.03 ± 0.01	1.06 ± 0.013	1.35 ± 0.12	1.57 ± 0.41	1.13 ± 0.12	1.5 ± 0.33	1.25 ± 0.38	2.5 ± 0.88
MITRIPRSSFSANINNTAQTNEHQTLSELFYKELEDKFSGKELATPLLKSFSENCRQNGRHIFSNKDFVIKFSTSVLQADKKEITIINKNENTTLTQTIAPIFEKYLMEILPQRSDTLDKQELNLKSDRKEKEFPRIKLNGQCYFPGRPQNRIVCRHIAAQYINDIYQNVDYKPHQDDYSSAEKFLTHFNKKCKNQTLALVSSRPEGRCVAACGDFGLVMKAYFDKMESNGISVMAAILLVDNHALTVRLRIKNTTEGCTHYVVSVYDPNVTNDKIRIMSESKENIKHYSLMDFMNVDYSLLKWSNDHVINQSVAIIPALPKEQLLMLKGSVDEITPPLSPATMNLLMAIGQNHQLTQLMIQLQKMPELHRTEMLTAYNSINLPGLYLAINYGNADIVETIFNSLSETGYEGLLSKKNLMHILEAKDKNGFSGLFLAISRKDKNVVTSILNALPKLAATHHLDNEQVYKFLSAKNRTSSHVLYHVMANGDADMLKIVLNALPLLIRTCHLTKEQVLDLLKAKDFYGCPGLYLAMQNGHSDIVKVILEALPSLAQEINISASDIVDLLTAKSLARDTGLFMAMQRGHMNVINTIFNALPTLFNTFKFDKKNMKPLLLANNSNEYPGLFSAIQHKQQNVVETVYLALSDHARLFGFTAEDIMDFWQHKAPQKYSAFELAFEFGHRVIAELILNTLNKMAESFGFTDNPRYIAEKNYMEALLKKASPHTVR	–	–	–	–	–	–	5.49	–	–	–	–	–
MSIEIANIKKSFGRTQVLNDISLDIPSGQMVALLGPSGSGKTTLLRIIAGLEHQTSGHIRFHGTDVSRLHARDRKVGFVFQHYALFRHMTVFDNIAFGLTVLPRRERPNAAAIKAKVTKLLEMVQLAHLADRYPAQLSGGQKQRVALARALAVEPQILLLDEPFGALDAQVRKELRRWLRQLHEELKFTSVFVTHDQEEATEVADRVVVMSQGNIEQADAPDQVWREPATRFVLEFMGEVNRLQGTIRGGQFHVGAHRWPLGYTPAYQGPVDLFLRPWEVDISRRTSLDSPLPVQVLEASPKGHYTQLVVQPLGWYNEPLTVVMHGDDAPQRGERLFVGLQHARLYNGDERIETRDEELALAQSA	6.63 ± 1.7	5.04 ± 1.5	2.09 ± 0.0062	2.01 ± 0.088	2.01 ± 0.032	2.4 ± 1.4	3.58 ± 2.8	2.68 ± 0.037	2.08 ± 0.11	2.85 ± 0.09	2.65 ± 0.42	4.77 ± 0.37
MKLTTHHLRTGAALLLAGILLAGCDQSSSDAKHIKVGVINGAEQDVAEVAKKVAKEKYGLDVELVGFSGSLLPNDATNHGELDANVFQHRPFLEQDNQAHGYKLVAVGNTFVFPMAGYSKKIKTVAQIKEGATVAIPNDPTNLGRALLLLQKEKLITLKEGKGLLPTALDITDNPRHLQIMELEGAQLPRVLDDPKVDVAIISTTYIQQTGLSPVHDSVFIEDKNSPYVNILVAREDNKNAENVKEFLQSYQSPEVAKAAETIFNGGAVPGW	5.58 ± 0.19	6.82 ± 1.4	–	6.47 ± 0.86	6.67 ± 0.91	2.86 ± 0.047	5.49 ± 0.059	10.7 ± 1.3	5.44 ± 0.46	12.6 ± 2.8	5.38 ± 0.23	10.6 ± 0.015
